Key:
[1] = molecular target: TnmJ (Streptomyces sp. CB03234); assay: crystal structure
[2] = molecular target: TnmJ (Streptomyces sp. CB03234); assay: SEC
TnmJ = assay: isothermal titration calorimetry; type: binding, Streptomyces sp. CB03234; settings: native substrate

Substance	stoichiometry N [1]	stoichiometry N [2]	Kd (TnmJ) [µM]
TnmJ (enzyme)	2	2	–
TNM I [compound 8]	–	–	3.4
